{"source": "the nanobody polyreactivity screen of Harvey et al. (2022)"}
{"assay": "yeast display, Sf9 membrane polyspecificity reagent, FACS + sequencing; frameworks hold sequencing errors", "procedure,_shortened": "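Using colony PCR, genes from sorted yeast display clones were amplified, then sequenced on MiSeq at 2 × 250 and filtered by CDR length. The clones had been stained with 10% biotinylated, detergent-solubilized Sf9 membrane reagent for 1 hour at 4 °C and sorted by FACS into low and high (top ~1%) gates on anti-HA and streptavidin fluorescence. Polyreactivity labels come from the gate of origin.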"}
{"sequence": "QVQLEESGGGIVQAGGSLRLSCAASGSTFRKYAMRWYRQAPGKERDFVAAITWSTGTTYYADSVKGRFTISRDNAKNTVYLQMNSLKPEDTAVYFCAADSQPPHELYESIEHESWGQGTQVTVSS", "polyreactivity (PSR sort gate)": "low polyreactivity"}
{"sequence": "QVQLEESGGGLDQAGGSLRLSCAASGLILDYNDIGGYRQAAGQERELVASITGGGSTYYADSVKGRFRISRDNAKNTVYLQMNSLKPQDTSVYSCNADPVGVYCFDLDYWGQGTQVTVSS", "polyreactivity (PSR sort gate)": "low polyreactivity"}
{"sequence": "QVQLEESGGGLDQAGGSLRLSCAASGRTLATYAMGWYRQAPGKERELVAAISSSGTRTYYADSVKGRFTISRDNAKNTVYFQMNSLNPEDTAVYYCNAGPGYDYWGQGTQLTVSS", "polyreactivity (PSR sort gate)": "high polyreactivity"}
{"sequence": "QVQLEESGGGLFQAGGSLRLICAATGSIFRVYVMGWYIQAPGKERELVAAITSSDGTTYYADSVKGRFTISRDNAKNTVYLQMNSLKPEDTALYYCNAEFYSPPVVGPRYWYPGFYWGQGTQVTVSS", "polyreactivity (PSR sort gate)": "low polyreactivity"}
{"sequence": "QVQLEESGGGLFQAGGSLRLSCAASGSTFADNAMGWYRQATGKEAEFVAGISTNGGSTYYADSVKGRFTISRDNAKNTVYLQMNSLKPEDTAVYYCNADSIDPFLYDYWGQGTQVTVSS", "polyreactivity (PSR sort gate)": "low polyreactivity"}
{"sequence": "QVQLEESGGGLRQAGGRLRLSCAASGRTFYVNAKGWYRQAPGKERELVAAISWSGGSTYYADSVKGRFTITRDNAKNTVYLQMNSLKPEDTAVYYCAAEDIEVYEYWGQGTQVTVSS", "polyreactivity (PSR sort gate)": "low polyreactivity"}
{"sequence": "QVQLEESGGGLVHAGGSLRLSCAASGFTFYSYAMGWYRQAPGKERELVAAITQSGGSTYYADSVKGRFTISRDNAKNTVYFQMNSLKPEDTAVYYCAAGRRSSWRYYLWYDYWGQGTQVTVSS", "polyreactivity (PSR sort gate)": "low polyreactivity"}
{"sequence": "QVQLEESGGGLVHAGGSLRLTCDAYGYIFALNPIVWNRQAPGNESEVVAAINDSGDSTYYADSLKGRFTISRDNSKNTVYLQMNSLNPEDSAVYYCAADTRYRYGAFPYYEYDNWGQGTQVTVSS", "polyreactivity (PSR sort gate)": "low polyreactivity"}
{"sequence": "QVQLEESGGGLVKARGSLRLSCAASGRTFNFYYMGWYRQAPGKERELVAAISSSGGSTYYADSVKGRFTISRDTAKYTVYLQMISLIPEDTAVYYCAKGPLYSLCFQHDAPYRYGYWGQATQVTVSS", "polyreactivity (PSR sort gate)": "low polyreactivity"}
{"sequence": "QVQLEESGGGLVQAEGSLRLICAASGSTFVYAMGWYRQSPGKERELVAAISYSGGSTYYADSVKGRFTISRDNAKTTVYLQMNSLKPEDTAVYYCAAYLVISAQRYYYWGQGTQVTVSS", "polyreactivity (PSR sort gate)": "high polyreactivity"}
{"sequence": "QVQLEESGGGLVQAGCSLRLSCAASGSTFVRYAMGWYRQAPGKERELVAAISWSGASTYYADSVKGRFTISRDNAKNTVYLQMNSLKPEDTAVYYCAARSRWYDAAGYQKYYYWGQGSQVTVSS", "polyreactivity (PSR sort gate)": "high polyreactivity"}
{"sequence": "QVQLEESGGGLVQAGGRLRLSCAASGIIYDFYAMGWYRQAPGKERELVAAITSSGGSTYYADSVKGRFTISRDNAKKTVYLQMNSLKPEDTAVDYCAAEYTIYGTDQRYYYWGQGTQVTVSS", "polyreactivity (PSR sort gate)": "low polyreactivity"}
{"sequence": "QVQLEESGGGLVQAGGRLRLSCAASGRIIYGYAMGWYRQAPGKERELVAAITATYYADSVKGRFTISRDNAKNTVYLQMNSLKPEDTAVYYCYAYLSPKQPLSPPDPTFEGGYWGQGTQVTVSS", "polyreactivity (PSR sort gate)": "low polyreactivity"}
{"sequence": "QVQLEESGGGLVQAGGRLRLSCAASGRIYTKYAMGWYRQAPGKERELVAAISGSGGNTYYADSVKGRFTISRDNAKNTVYLQMNSLKPEDTAVYYCNRAKNAYLMDYWGQGTQVTVSS", "polyreactivity (PSR sort gate)": "high polyreactivity"}
{"sequence": "QVQLEESGGGLVQAGGRLRLSCAASGSIFGFYAMGWYRQAPGKERELVASITISGGSTYYADSVKGRFTISRDNAKNTVYLQMNSLKPEDTAVYYGAARRYWDYNYWGQGTQVTVSS", "polyreactivity (PSR sort gate)": "low polyreactivity"}
{"sequence": "QVQLEESGGGLVQAGGRLRLSCAASGSIWSYAMGWYRQAPGKERELVAAISSTGGSTYYADSVKGRFTISRDNAKNTVYLQMNSLKPEDTAVYYCAKGRRYDQSHYNYWGQGTQVNVSS", "polyreactivity (PSR sort gate)": "high polyreactivity"}
{"sequence": "QVQLEESGGGLVQAGGSHRLSCAASGPTFRRNVMGWSRQAPGKEREFVAAITWSGGNTYYADSVKGRITISRDNAKYTVFLQMYSLKREDTAVYYCNARSAIWGWGYGSYDYWGLGTQVTVSS", "polyreactivity (PSR sort gate)": "low polyreactivity"}
{"sequence": "QVQLEESGGGLVQAGGSIRLSCAASGSTLVGNAMGWYRQAPGKERELVATIDLSDDITYYADSVKGRFTSSRDNAKNTFYLQMNSLKPEDTAVYYCSAEYYLYSTYTVSYGKYDYWGQGTQGTVSS", "polyreactivity (PSR sort gate)": "high polyreactivity"}
{"sequence": "QVQLEESGGGLVQAGGSLRIICAASGRTFQLYAMGWYRQAPGKERELVAAITWSSGRTSYADSVKGRFTISRDNAKNTVYLQMNSLKPEDTAVYYCAADVWGGLLPGYDYWGQGTQVTVSS", "polyreactivity (PSR sort gate)": "high polyreactivity"}
{"sequence": "QVQLEESGGGLVQAGGSLRISCAASGSIVRYKAMGWYRQAHGKERELVAAISSRGGSTYYADSVKGRFTISRDNAKNTVYLQMNSLKPEDTAVYYCNVRWTYKYDYWGQGTQVTVSS", "polyreactivity (PSR sort gate)": "high polyreactivity"}
{"sequence": "QVQLEESGGGLVQAGGSLRLCCAASGFTFDYNAKGWYRQPPGKLRDLVAVISSSGSRTYYADSVKGRFTISRDYAKNTVYLQMNSLKPEDSAVYYWAGARIGTSDYWGQGTQVTESS", "polyreactivity (PSR sort gate)": "high polyreactivity"}
{"sequence": "QVQLEESGGGLVQAGGSLRLCCAASGRTFYYAMGWYRQATGKDRYADSVKGRFTISRDNAKNTVYLQMNSLKPDDTSVYYCAAKVTEPPSLDDSDYWGQGTQVTVSS", "polyreactivity (PSR sort gate)": "low polyreactivity"}
{"sequence": "QVQLEESGGGLVQAGGSLRLICAASGGTISKYAMGWYRQAPGTEMELVAAITYSSGSTYYADSVKGRFTISRDNAKNTVYLQMNSLKPEDTAVYYCAARSGLYWWRFDYWGQGTLVTVSS", "polyreactivity (PSR sort gate)": "high polyreactivity"}
{"sequence": "QVQLEESGGGLVQAGGSLRLICAASGRIFGVNAMGWYRQAHGKERELVAVISSGGSTYYADSVKGRFTISRDNAKNTVYLQMNSLKPEDTAVYYCNAVVGSWFPYNLSDYWGEGTQVTVSS", "polyreactivity (PSR sort gate)": "low polyreactivity"}
{"sequence": "QVQLEESGGGLVQAGGSLRLICAASGRTFSGNTMGWYIQAPGKERELVAAITGRGGSTYYADSEKGRFTISRDNEKNTVYLQMNSLKPVDTAVYYCAALRYTFAGRFDYWGQGTQVTVSS", "polyreactivity (PSR sort gate)": "high polyreactivity"}
{"sequence": "QVQLEESGGGLVQAGGSLRLICAASGRTFVYYAMGWYRQAPGKERELVAAISTGGSTNYADSVKGRFTISRDNAKNTVYLQMNSLKTEDTAVYYCAAQYYISISKYDYWGQGTQVTVSS", "polyreactivity (PSR sort gate)": "low polyreactivity"}
{"sequence": "QVQLEESGGGLVQAGGSLRLICADSGFTFVYYARGWYRQAPGKERELVATISGNGGRTYYADSVKGRFTISRDNAKNTVYLQMNSLKPEDTAVYYCNADDPYLYYDSYDYWGQGTQVTVSS", "polyreactivity (PSR sort gate)": "low polyreactivity"}
{"sequence": "QVQLEESGGGLVQAGGSLRLIWAASGFIFRTYTMGWYRQAPGKERELVATIDSSGGSTYYADSVKGRFTISRDNAKNTVYLQMNSLKPEDTAVYYCNADLRELSPWYWYSGEMDYWGQGTQVTVSS", "polyreactivity (PSR sort gate)": "low polyreactivity"}
{"sequence": "QVQLEESGGGLVQAGGSLRLSCAASGFICKRYARGWYRQAPGKERELVAAITTSGGRTYYADSVKGRFTISRDNAKNTVYLQMNSLIPEDTAVYYCAAAQPGTNAYRVGSWGQGTQVTVSS", "polyreactivity (PSR sort gate)": "high polyreactivity"}
{"sequence": "QVQLEESGGGLVQAGGSLRLSCAASGFIFAQYAMGWYRKAPRKDRELVAAISWSGGSTYYADSVKGRFTISRDNAKNTVYLQMNSLKPEDTAVYYCAALFRNKSRYRYGYWGQGTQVTVSS", "polyreactivity (PSR sort gate)": "high polyreactivity"}
{"sequence": "QVQLEESGGGLVQAGGSLRLSCAASGFIFPYYAMGWYRQAHGQERELVAAISRSGGRTYYADSVKGRFTISRDNAKNTVYLQMNSLKPEDTAVYYCNAPFQSEPFDYWGQGTQVTVSS", "polyreactivity (PSR sort gate)": "high polyreactivity"}
{"sequence": "QVQLEESGGGLVQAGGSLRLSCAASGFIFRYYAMGWYRQAPGKERELVAAISWSGGSTYYADSVKGRFTISRDNAKNTVYLQMNSLKPEETAVDYGAADRYAILFYAEDYWGQGTQVTVSS", "polyreactivity (PSR sort gate)": "low polyreactivity"}
{"sequence": "QVQLEESGGGLVQAGGSLRLSCAASGFIFVANAMGWYIQAPWKERELVAAISRRGGSTYYADSVKGRFTISRDNAKNTVYLQMNSLKPEDTAVYYCNAYRRGLSGYGYWGQGTQVTVSS", "polyreactivity (PSR sort gate)": "high polyreactivity"}
{"sequence": "QVQLEESGGGLVQAGGSLRLSCAASGFIFWANAMGWYRQAPGKERELVAAIRYSGGRTYYADSVKGRFTSSRDTAKNTFFLLMNSLIPEDTAVYYCAKEYKNYGGFVVEYDYWGQGTQVNVSS", "polyreactivity (PSR sort gate)": "low polyreactivity"}
{"sequence": "QVQLEESGGGLVQAGGSLRLSCAASGFILCDYAMGWYRQATGKERELVAGINYRGGSTHYADSVKGRFTISRDIAKNTVYLQMNSLKPEDTAVYYCSKRRQSYPYKTSTWYSHYSWGQGTQVTVSS", "polyreactivity (PSR sort gate)": "high polyreactivity"}
{"sequence": "QVQLEESGGGLVQAGGSLRLSCAASGFILSGNTMGWYRPAPGKERELVAGITYTGGSTYYADSVKGRFTISRDNAKNTVYLQMNSLKPEDTAVYYCAVDVAGGEGMDYWGHGTQVTVSS", "polyreactivity (PSR sort gate)": "low polyreactivity"}
{"sequence": "QVQLEESGGGLVQAGGSLRLSCAASGFIYAHYAMGWYRQAPGKERELVAAISSRGGSTYYADSVKGRFTISRDYAKNPVYLQINSLKPEDTAVYYCAKARHRPARGYEYWGLGTQVTVSS", "polyreactivity (PSR sort gate)": "high polyreactivity"}
{"sequence": "QVQLEESGGGLVQAGGSLRLSCAASGFTFAYYAMGWYSQAPGKERELVAAISRSGGRTNYADSVKGRFTISRDNAKNTVYLQMNSLKPEETAVYYCNKQQTPRYWWSPYGGYDYWGQGTQGTVSS", "polyreactivity (PSR sort gate)": "high polyreactivity"}
{"sequence": "QVQLEESGGGLVQAGGSLRLSCAASGFTFRAYAMGWYRQAPGKERELVAANTYSGDRTYYADSVKGRFTITRDNAKKTVYLQMNSLKPEDTAVYYCAAYGAKVNRPGYYYWGQGTQVTVSS", "polyreactivity (PSR sort gate)": "high polyreactivity"}
{"sequence": "QVQLEESGGGLVQAGGSLRLSCAASGGIFGWYTMGWNRQAPGKERELVAAINFSGSRTYYADSVKGRFTISRHNAKNTVYLQMNSLKPEDTAVYYCNAVYHQFRVEYWGQGTQVTVSS", "polyreactivity (PSR sort gate)": "high polyreactivity"}
{"sequence": "QVQLEESGGGLVQAGGSLRLSCAASGGIFPAYAMGWYRQAPGKERELVASISANGGRTYYADSVKGRFTISRDNAKNTVYLQMNSLKPEDTAVYYCNASSLSGSWRFYYWGQGTQVTVSS", "polyreactivity (PSR sort gate)": "high polyreactivity"}
